US12624096B2, “Anti-tau antibodies and methods of use thereof” (GTInvent Limited, priority 2020, dated 2026)

How the values were obtained:
aggregated dGAE = aggregated dGAE (Homo sapiens, UniProt P10636); assay: Capture ELISA ranking of mAbs on dGAE aggregates; type: binding; details: 1 μg/ml capture mAb, 800 nM aggregated dGAE
Protocol: The aggregation cascade of natively unfolded tau into insoluble filaments is a defining pathological feature of AD. Therefore, it is logical to target aggregated tau filaments for both therapeutic and diagnostic purposes. The following experiment was performed to assess the ability of our dGA mAb panel to bind aggregated dGAE using a capture ELISA method. Aggregates were prepared by incubating 100 μM dGAE and 10 mM dTT for 24 h at 37° C. with shaking at 700 RPM. The following day, dGAE aggregates were centrifuged at 17,000×g for 20 min and the supernatant was removed. The remaining pellet was washed with 10 mM phosphate buffer and centrifuged as above. Washing was repeated a further two times to remove any remaining dGAE monomer. The dGAE pellet was resuspended in 100 μl of 10 mM phosphate buffer. (Using a separate capture ELISA based quantification, we have worked out the efficiency of our dGAE aggregation as 80%)
For assessing the mAb panel for aggregate binding, designated rows of a maxisorp plate were coated with 1 μg/ml of each of the capture mAbs (S1D12, S1G2, CA4, NS2A1, CE2, E2E8 and CB7) and blocked as before. Following washing, 800 nM aggregated dGAE was added to the designated wells, double diluted across the plate and incubated for 1 h at RT. The plate was washed again and 1 μg/ml S1G2 scAb was added as detection antibody and incubated for 1 h at RT. To the row where S1G2 mAb was used for capture, […] s1D12 scAb was added as […] instead of S1G2. The assay was developed using HRP labelled HuCK as described previously.

[1] = test system: hT40, dGA, dGAE and truncated tau fragments/peptides; assay: Binding ELISA for epitope mapping with truncated tau proteins and biotinylated 13mer peptides; design: species or system human; details: direct binding ELISA
Protocol: A series of binding ELISA was performed using various truncated versions of the tau protein and 13mer peptide libraries spanning the entire hT40 molecule for mapping the epitopes of anti-tau scAbs (Full list of protein antigens used is given in Table 14). In general, ELISA plates were coated with 1 μg/ml hT40 or dGA or dGAE or other truncated versions of the protein and in the case of biotinylated peptides, plates were coated with 5 μg/ml Streptavidin followed by 1 μg/ml biotinylated peptide. The plates were blocked with 2% MPBS and scAb samples added at desired starting concentrations and double diluted across the plate. Binding was detected using anti-Human C Kappa HRP conjugated secondary antibody and the resulting immunoreaction was developed and absorbance values measured as described above.
Similarly, dGA binding ‘NS’, ‘S’ and ‘M’ group scAbs were subjected to further antigen binding ELISA using shorter tau proteins and biotinylated 13mer peptides as shown below (FIGS. 10A-F) and (FIGS. 11A-R).
For anti-tau mAb SPR measurements (Biacore X100™) and epitope mapping, the same methodologies described above (see Example 16) were followed.

dGAE = dGAE (Homo sapiens, UniProt P10636); assay: Biacore X100 SPR, scAb captured via anti-HuCk, dGAE as analyte; type: binding; details: dissociation rate
Chain of dGAE (P10636 614-708): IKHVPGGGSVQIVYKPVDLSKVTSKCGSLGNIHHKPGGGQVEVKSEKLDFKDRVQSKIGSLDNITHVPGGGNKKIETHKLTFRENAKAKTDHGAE
Protocol: Surface plasmon resonance (SPR) is widely regarded as the gold standard for real time measurement of protein-protein interactions such as antibody binding. All SPR experiments were carried out using a Biacore X100 machine and HBS EP+ running buffer (GE Healthcare). A ‘capture’ method was followed for affinity measurements, where an anti-human constant kappa chain (HuCk) antibody was conjugated to the surface of a CM5 sensor chip using an amine coupling kit and scAb molecules were immobilised via their HuCk domain. Amine coupling is a very common approach for immobilising the ligand to the chip surface. The chip surface has a dextran matrix derivatised with carboxyl groups, which after activation with N-hydroxysuccinimide (NHS) and 1-ethyl-3-(3-dimethylaminopropyl) carbodiimide (EDC), form reactive succinimide esters which allows the covalent capturing of the ligand via any available primary amine groups (e.g. Lysine) on the ligand (in this case anti-HuCk antibody). The capture antibody was diluted 1/100 in 10 mM Sodium acetate buffer pH 5.0 and passed over the activated chip surface for a period of at least 420 s. […]
The single cycle kinetics protocol was similar and utilised the same level of scAb capture. […] Binding responses were analysed in Biacore X100 evaluation software and data fitted to a 1:1 binding model to obtain kinetic and affinity characterisation.

hT40 [2] = molecular target: T1, hT40 (Homo sapiens, UniProt P10636); assay: Biacore X100 SPR, scAb captured via anti-HuCk, hT40 as analyte; type: binding; details: scAb
T1 sequence (P10636 1-441 isoform P10636-8): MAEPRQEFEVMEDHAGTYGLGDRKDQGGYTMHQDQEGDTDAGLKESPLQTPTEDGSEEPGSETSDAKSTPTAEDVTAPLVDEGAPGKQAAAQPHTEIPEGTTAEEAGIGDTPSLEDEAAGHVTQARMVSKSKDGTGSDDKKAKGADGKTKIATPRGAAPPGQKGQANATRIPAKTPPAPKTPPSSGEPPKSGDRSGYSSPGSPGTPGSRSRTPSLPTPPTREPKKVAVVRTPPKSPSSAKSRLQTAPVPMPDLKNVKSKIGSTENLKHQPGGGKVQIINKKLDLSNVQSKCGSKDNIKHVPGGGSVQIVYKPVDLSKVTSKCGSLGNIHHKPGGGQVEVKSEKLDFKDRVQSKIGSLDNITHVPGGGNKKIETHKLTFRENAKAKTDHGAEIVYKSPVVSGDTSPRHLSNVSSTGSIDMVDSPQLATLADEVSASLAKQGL
Summary of the method: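 Captured scAb on anti-HuCk CM5 surface (flow cell 1 as reference) in HBS-EP+, capture set for theoretical RMax 100 RU; hT40 injected multi-cycle (0.15625–100 nM) or single-cycle (6.25–100 nM), 120 s association, 420 s dissociation, glycine pH 2.0 regeneration. Kinetics and affinity from 1:1 binding model fit.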

hT40 [3] = molecular target: T1, hT40; assay: Sandwich ELISA, limits of detection (LoD) of antibody pairs; type: binding; details: S1D12 mAb capture, detection scAb
Protocol: Full length tau (hT40), at 1 μg/ml starting concentration was added to designated wells and double diluted across rest of the plates and left to incubate at R/T for 1 h. A series of detection scAbs with varying epitope recognition properties were added at 10 μg/ml to designated wells (FIG. 22). For colourimetric detection HRP conjugated anti-HuCk secondary antibody was used and the resulting immunoreaction was developed and absorbance at 450 nm measured as described previously. Cut-off point for a positive binding event was an absorbance value of 0.3 following background subtraction. In order to enhance the assay sensitivity, a chemiluminescent detection method was adopted where 50 μL SuperSignal ELISA Femto Substrate (Thermo Scientific) was added to each well following incubation with anti-HuCK HRP antibody and subsequent washing. The luminescence was read using Clariostar Plus microplate reader. A further modification to this protocol was done where various detection scAbs were directly conjugated with HRP and detected using chemiluminescent protocol as before. The lowest levels of detection achieved using different detection scAbs and a comparison of colourimetric and chemiluminescent methods of detection are shown in Table 28
The assay was conducted using chemiluminescent protocol described above.

Chain of aggregated dGAE (P10636 614-708): as the sequence (P10636 614-708) above

| Molecule | ability to capture aggregated dGAE (aggregated dGAE) | cross-reactivity of 'E' group scAbs using hT40, dGA and dGAE antigens [1] | Kd (dGAE) [s⁻¹] | further results |
| --- | --- | --- | --- | --- |
| E2E8 mAb: E2E8 reformatted as mAb, SEQ ID NO: 493 and 494 (antibody, E2E8 mAB Heavy Chain; E2E8 mAB Light Chain) heavy: QVQLQESGPSLVKPSQTLSLTCTVSGFSLTDRGVAWVRQAPGKALEWVGTMRSGGTIDYNPALKSRLSITRDTSKSQVFLSLSSVTTEDMAMYYCARGYLSGDRYAWGRGLLVTVSSAKTTAPSVYPLAPVCGDTTGSSVTLGCLVKGYFPEPVTLTWNSGSLSSGVHTFPAVLQSDLYTLSSSVTVTSSTWPSQSITCNVAHPASSTKVDKKIEPRGPTIKPCPPCKCPAPNLLGGPSVFIFPPKIKDVLMISLSPIVTCVVVDVSEDDPDVQISWFVNNVEVHTAQTQTHREDYNSTLRVVSALPIQHQDWMSGKEFKCKVNNKDLPAPIERTISKPKGSVRAPQVYVLPPPEEEMTKKQVTLTCMVTDFMPEDIYVEWTNNGKTELNYKNTEPVLDSDGSYFMYSKLRVEKKNWVERNSYSCSVVHEGLHNHHTTKSFSRTPGK light: QAVLTQPSSVSKSLGQSVSIACSGSRSDIGYGNYVSWFQQIPGSAPKLLIYDTNTRASGVPDRFSGARSGNTATLTINSLQAEDEADYYCANIDSSRSHLFGSGTRLTVLGGQPKSSPSVTLFPPSSEELETNKATLVCTITDFYPGVVTVDWKVDGTPVTQGMETTQPSKQSNNKYMASSYLTLTARAWERHSSYSCQVTHEGHTVEKSLSRADCS | most efficient at capturing aggregated dGAE | – | – | – |
| E2E8: anti-tau clone, SEQ ID NO: 248 (protein, E2E8 amino acid sequence) scFv: QVQLQESGPSLVKPSQTLSLTCTVSGFSLTDRGVAWVRQAPGKALEWVGTMRSGGTIDYNPALKSRLSITRDTSKSQVFLSLSSVTTEDMAMYYCARGYLSGDRYAWGRGLLVTVSSEGKSSGASGESKVDDQAVLTQPSSVSKSLGQSVSIACSGSRSDIGYGNYVSWFQQIPGSAPKLLIYDTNTRASGVPDRFSGARSGNTATLTINSLQAEDEADYYCANIDSSRSHLFGSGTRLTVLG | – | specific dGAE binding | 0.0001915 | T441 binding (in words) (hT40 [2]; Table 23): No T441 binding; hT40 binding (in words) (hT40 [2]; Table 26 summary): No hT40 binding |
| CA2: anti-tau clone, SEQ ID NO: 363 (protein, CA2 amino acid sequence) scFv: QVQLQESGPSLVKPSQTLSLTCTVSGFSLSSVAVNWVRQAPGKVPEWLGGIISNGGTGYNPALKSRLSITRDTSKSQVSLALTHVTTEDTAVYYCGRGVEWEGSMDYLGPGLLVTVSSEGKSSGSGSETKVDDQSVLTQPSSVSGFLGQRVTITCSGSSSNVGAGSYVGWYQQVPGSGLRILIYGATKRASGLPDRFSGSRSGNTATLTISSLQAEDEADYYCVSYQTDFTLVFGSGTRLTVLG | – | – | – | LoD chemiluminescence detection (hT40 [3]): 0.37 ng/mL; LoD colourimetric detection (hT40 [3]): 6 ng/mL |
| S1G2 mAb: S1G2 reformatted as mAb, SEQ ID NO: 457 and 458 (antibody, S1G2 mAB Heavy Chain; S1G2 mAB Light Chain) heavy: QVQLQESGPSLVKPSQTLSLTCTVSGFSLTSNSVGWVRQAPGKAPEWVAGIDTDGEEGYNPALNSRLSITRDTSKSQVSLSLSSVTSEDTAVYYCGRSYRADGLAYGYVQAIDYWGPGLLVTVSSAKTTAPSVYPLAPVCGDTTGSSVTLGCLVKGYFPEPVTLTWNSGSLSSGVHTFPAVLQSDLYTLSSSVTVTSSTWPSQSITCNVAHPASSTKVDKKIEPRGPTIKPCPPCKCPAPNLLGGPSVFIFPPKIKDVLMISLSPIVTCVVVDVSEDDPDVQISWFVNNVEVHTAQTQTHREDYNSTLRVVSALPIQHQDWMSGKEFKCKVNNKDLPAPIERTISKPKGSVRAPQVYVLPPPEEEMTKKQVTLTCMVTDFMPEDIYVEWTNNGKTELNYKNTEPVLDSDGSYFMYSKLRVEKKNWVERNSYSCSVVHEGLHNHHTTKSFSRTPGK light: QAVVTQPSSVSGSLGQRVSITCSGSFIGISSVGWFQQLPGSGLRTIIVASDGRPSGVPDRFSMSKSGNTATLTISSLQAEDEADYFCGSSDRTPYTGVFGSGTRLTVLGGQPKSSPSVTLFPPSSEELETNKATLVCTITDFYPGVVTVDWKVDGTPVTQGMETTQPSKQSNNKYMASSYLTLTARAWERHSSYSCQVTHEGHTVEKSLSRADCS | most efficient at capturing aggregated dGAE | – | – | – |
| E1E8: anti-tau clone, SEQ ID NO: 250 (protein, E1E8 amino acid sequence) scFv: QVQLQESGPSLVKPSQTLSLTCTVSGFSLTDWGVAWVRQAPGKALEWLGTMRSGGTTDDNPALKSRLSITRDTSKSQVSLSLSSVTTEDMAMYYCARGYLSGVHYAWGRGLLVTVSSEGKSSGASGESKVDDQAVLTQPSSVSGSLGQSVSITCSGSSSNVGDGRYVSWFQQVPGSAPKLLIYDTTSRASGVPDRFSGSRSGNTATLIITSLQAEDEADYYCASIDSGNNLLFGSGTRLTVLG | – | specific dGAE binding | 0.0014 | – |
